From the supplement of paper PMC11246515
± gives the standard deviation of the averaged measurements.

Assay: total protein half-life in vivo (active degradation + dilution); higher = more stable protein
[1] = E. coli NCM3722 delta-lon, growth: N-lim chemostat, doubling time 6 h
[2] = E. coli NCM3722 delta-smpB, growth: N-lim chemostat, doubling time 6 h
[3] = wild type E. coli NCM3722, growth: C-lim chemostat, doubling time 6 h
[4] = wild type E. coli NCM3722, growth: C-lim chemostat, doubling time 12 h
[5] = E. coli NCM3722 delta-hslV, growth: N-lim chemostat, doubling time 6 h
[6] = wild type E. coli NCM3722, growth: C-lim chemostat, doubling time 3 h
[7] = wild type E. coli NCM3722, growth: N-lim chemostat, doubling time 6 h
[8] = wild type E. coli NCM3722, growth: N-lim chemostat, doubling time 12 h
[9] = wild type E. coli NCM3722, growth: P-lim chemostat, doubling time 6 h
[10] = wild type E. coli NCM3722, growth: P-lim chemostat, doubling time 12 h
[11] = E. coli NCM3722 delta-clpP delta-lon delta-hslV, growth: N-lim chemostat, doubling time 6 h
[12] = E. coli NCM3722 delta-clpP, growth: N-lim chemostat, doubling time 6 h

Sequence | total protein half-life in vivo [1] | total protein half-life in vivo [2] | total protein half-life in vivo [3] | total protein half-life in vivo [4] | total protein half-life in vivo [5] | total protein half-life in vivo [6] | total protein half-life in vivo [7] | total protein half-life in vivo [8] | total protein half-life in vivo [9] | total protein half-life in vivo [10] | total protein half-life in vivo [11] | total protein half-life in vivo [12]
MVLQSTRWLALGYFTYFFSYGIFLPFWSVWLKGIGLTPETIGLLLGAGLVARFLGSLLIAPRVSDPSRLISALRVLALLTLLFAVAFWAGAHVAWLMLVMIGFNLFFSPLVPLTDALANTWQKQFPLDYGKVRLWGSVAFVIGSALTGKLVTMFDYRVILALLTLGVASMLLGFLIRPTIQPQGASRQQESTGWSAWLALVRQNWRFLACVCLLQGAHAAYYGFSAIYWQAAGYSASAVGYLWSLGVVAEVIIFALSNKLFRRCSARDMLLISAICGVVRWGIMGATTALPWLIVVQILHCGTFTVCHLAAMRYIAARQGSEVIRLQAVYSAVAMGGSIAIMTVFAGFLYQYLGHGVFWVMALVALPAMFLRPKVVPSC | 6.67 h | 4.51 h | 2.77 h | 10.4 ± 0.17 h |  |  |  |  |  |  |  | 
MPKLRLIGLTLLALSATAVSHAEETRYVSDELNTWVRSGPGDHYRLVGTVNAGEEVTLLQTDANTNYAQVKDSSGRTAWIPLKQLSTEPSLRSRVPDLENQVKTLTDKLTNIDNTWNQRTAEMQQKVAQSDSVINGLKEENQKLKNELIVAQKKVDAASVQLDDKQRTIIMQWFMYGGGVLGLGLLLGLVLPHLIPSRKRKDRWMN [P0ADT8] | 6.43 ± 0.12 h | 5.94 ± 0.49 h | 5.84 ± 0.24 h | 11.1 ± 0.11 h | 6.56 ± 0.2 h | 3.03 ± 0.052 h | 5.83 ± 0.15 h | 11.8 ± 0.99 h | 5.51 ± 0.2 h | 12.5 ± 0.39 h |  | 
MLIRVEIPIDAPGIDALLRRSFESDAEAKLVHDLREDGFLTLGLVATDDEGQVIGYVAFSPVDVQGEDLQWVGMAPLAVDEKYRGQGLARQLVYEGLDSLNEFGYAAVVTLGDPALYSRFGFELAAHHDLRCRWPGTESAFQVHRLADDALNGVTGLVEYHEHFNRF | 4.44 ± 0.37 h | 3.73 ± 0.17 h |  | 9.91 ± 0.78 h | 4.22 ± 0.15 h | 3.02 ± 0.3 h | 4.51 ± 0.72 h | 7.82 ± 0.18 h | 5.72 ± 0.43 h | 11.7 ± 0.65 h | 5.29 ± 0.2 h | 4.46 ± 0.13 h
MDTSLAEEVQQTMATLAPNRFFFMSPYRSFTTSGCFARFDEPAVNGDSPDSPFQQKLAALFADAKAQGIKNPVMVGAIPFDPRQPSSLYIPESWQSFSRQEKQASARRFTRSQSLNVVERQAIPEQTTFEQMVARAAALTATPQVDKVVLSRLIDITTDAAIDSGVLLERLIAQNPVSYNFHVPLADGGVLLGASPELLLRKDGERFSSIPLAGSARRQPDEVLDREAGNRLLASEKDRHEHELVTQAMKEVLRERSSELHVPSSPQLITTPTLWHLATPFEGKANSQENALTLACLLHPTPALSGFPHQAATQVIAELEPFDRELFGGIVGWCDSEGNGEWVVTIRCAKLRENQVRLFAGAGIVPASSPLGEWRETGVKLSTMLNVFGLH [P0AEJ2] |  |  | 2.54 h |  |  | 2.43 h |  |  |  |  |  | 
MSLTLTLTGTGGAQGVPAWGCECAACARARRSPQYRRQPCSGVVKFNDAITLIDAGLHDLADRWSPGSFQQFLLTHYHMDHVQGLFPLRWGVGDPIPVYGPPDEQGCDDLFKHPGLLDFSHTVEPFVVFDLQGLQVTPLPLNHSKLTFGYLLETAHSRVAWLSDTAGLPEKTLKFLRNNQPQVMVMDCSHPPRADAPRNHCDLNTVLALNQVIRSPRVILTHISHQFDAWLMENALPSGFEVGFDGMEIGVA | 4.56 ± 0.17 h | 4.8 h | 4.07 h | 9.33 ± 0.34 h | 4.36 ± 0.11 h | 2.37 h | 4.3 h | 7.1 h | 4.41 h | 8.54 ± 2.5 h | 6.78 h | 4.09 ± 0.048 h
MTQPLFLIGPRGCGKTTVGMALADSLNRRFVDTDQWLQSQLNMTVAEIVEREEWAGFRARETAALEAVTAPSTVIATGGGIILTEFNRHFMQNNGIVVYLCAPVSVLVNRLQAAPEEDLRPTLTGKPLSEEVQEVLEERDALYREVAHIIIDATNEPSQVISEIRSALAQTINC [P0A6E1] | 2.9 ± 0.18 h | 2.42 ± 0.11 h | 5.25 ± 0.8 h | 7.3 ± 0.53 h | 2.62 ± 0.031 h | 2.43 ± 0.067 h | 2.59 ± 0.29 h | 3.99 ± 0.094 h | 3.9 ± 0.047 h | 8.17 ± 0.78 h | 4.64 ± 0.55 h | 5.49 ± 2.4 h
MNEQNLKHVIALLLEDAKRLQQIEPNAGTEARILLAKQALKTCGAQAPGRTEFMNFMANTLTPLPCNGEKVSRVYHDTMVKALRIELDGLRRKIVMNEIVTN |  |  |  |  |  |  | 4.61 h |  |  |  | 4.2 h | 4.79 h
MSQTVHFQGNPVTVANSIPQAGSKAQTFTLVAKDLSDVTLGQFAGKRKVLNIFPSIDTGVCAASVRKFNQLATEIDNTVVLCISADLPFAQSRFCGAEGLNNVITLSTFRNAEFLQAYGVAIADGPLKGLAARAVVVIDENDNVIFSQLVDEITTEPDYEAALAVLKA [P0A862] | 4.96 ± 0.085 h | 4.739 ± 0.047 h | 6.01 ± 0.23 h | 10.8 ± 1.2 h | 5.25 ± 0.47 h | 3.16 ± 0.047 h | 5.01 ± 0.18 h | 9.45 ± 1.1 h | 6.09 ± 0.53 h | 13.3 ± 0.69 h | 5.35 ± 0.21 h | 5.2 ± 0.74 h
MTMSLEVFEKLEAKVQQAIDTITLLQMEIEELKEKNNSLSQEVQNAQHQREELERENNHLKEQQNGWQERLQALLGRMEEV [P0AF36] | 4.06 ± 0.25 h | 3.08 ± 0.33 h | 5.01 ± 0.5 h | 8.02 ± 1.9 h | 3.23 h | 2.8 ± 0.15 h | 2.88 ± 0.047 h | 5.13 ± 2.1 h | 4.53 h | 8.35 ± 0.092 h | 7.42 ± 0.15 h | 5.62 ± 0.36 h
MLKLFSAFRKNKIWDFNGGIHPPEMKTQSNGTPLRQVPLAQRFVIPLKQHIGAEGELCVSVGDKVLRGQPLTRGRGKMLPVHAPTSGTVTAIAPHSTAHPSALAELSVIIDADGEDCWIPRDGWADYRTRSREELIERIHQFGVAGLGGAGFPTGVKLQGGGDKIETLIINAAECEPYITADDRLMQDCAAQVVEGIRILAHILQPREILIGIEDNKPQAISMLRAVLADSNDISLRVIPTKYPSGGAKQLTYILTGKQVPHGGRSSDIGVLMQNVGTAYAVKRAVIDGEPITERVVTLTGEAIARPGNVWARLGTPVRHLLNDAGFCPSADQMVIMGGPLMGFTLPWLDVPVVKITNCLLAPSANELGEPQEEQSCIRCSACADACPADLLPQQLYWFSKGQQHDKATTHNIADCIECGACAWVCPSNIPLVQYFRQEKAEIAAIRQEEKRAAEAKARFEARQARLEREKAARLERHKSAAVQPAAKDKDAIAAALARVKEKQAQATQPIVIKAGERPDNSAIIAAREARKAQARAKQAELQQTNDAATVADPRKTAVEAAIARAKARKLEQQQANAEPEQQVDPRKAAVEAAIARAKARKLEQQQANAEPEEQVDPRKAAVEAAIARAKARKLEQQQANAEPEQQVDPRKAAVEAAIARAKARKREQQPANAEPEEQVDPRKAAVEAAIARAKARKLEQQQANAVPEEQVDPRKAAVAAAIARAQAKKAAQQKVVNED | > 8 h | 1.01 ± 0.033 h | 1.31 ± 0.069 h | 1.76 h |  | 1.3 ± 0.13 h | 1.16 h |  | 1.8 ± 0.14 h | 2.72 ± 0.58 h | 5.65 ± 0.73 h | 2.67 ± 0.51 h
MRLTSKGRYAVTAMLDVALNSEAGPVPLADISERQGISLSYLEQLFSRLRKNGLVSSVRGPGGGYLLGKDASSIAVGEVISAVDESVDATRCQGKGGCQGGDKCLTHALWRDLSDRLTGFLNNITLGELVNNQEVLDVSGRQHTHDAPRTRTQDAIDVKLRA [P0AGK8] | 1.43 ± 0.34 h | 1.04 ± 0.058 h | 1.76 ± 0.058 h | 2.04 ± 0.57 h | 1.38 ± 0.36 h | 1.22 ± 0.076 h | 1.057 ± 0.0037 h | 1.37 ± 0.1 h | 1.53 ± 0.5 h | 2.18 ± 0.6 h | 5.43 ± 0.76 h | 2.85 ± 0.1 h
MIDFGNFYSLIAKNHLSHWLETLPAQIANWQREQQHGLFKQWSNAVEFLPEIKPYRLDLLHSVTAESEEPLSAGQIKRIETLMRNLMPWRKGPFSLYGVNIDTEWRSDWKWDRVLPHLSDLTGRTILDVGCGSGYHMWRMIGAGAHLAVGIDPTQLFLCQFEAVRKLLGNDQRAHLLPLGIEQLPALKAFDTVFSMGVLYHRRSPLEHLWQLKDQLVNEGELVLETLVIDGDENTVLVPGDRYAQMRNVYFIPSALALKNWLKKCGFVDIRIADVSVTTTEEQRRTEWMVTESLADFLDPHDPGKTVEGYPAPKRAVLIARKP | 5.97 ± 1.3 h | 5.36 ± 0.11 h | 5.84 ± 0.0082 h | 13.1 ± 3.1 h | 5.33 ± 0.13 h | 3.11 ± 0.086 h | 5.59 h | 11.6 ± 2.1 h | 5.89 ± 0.94 h | 12.3 ± 0.86 h | 5.27 ± 0.08 h | 4.888 ± 0.034 h
MDRVLHFVLALAVVAILALLVSSDRKKIRIRYVIQLLVIEVLLAWFFLNSDVGLGFVKGFSEMFEKLLGFANEGTNFVFGSMNDQGLAFFFLKVLCPIVFISALIGILQHIRVLPVIIRAIGFLLSKVNGMGKLESFNAVSSLILGQSENFIAYKDILGKISRNRMYTMAATAMSTVSMSIVGAYMTMLEPKYVVAALVLNMFSTFIVLSLINPYRVDASEENIQMSNLHEGQSFFEMLGEYILAGFKVAIIVAAMLIGFIALIAALNALFATVTGWFGYSISFQGILGYIFYPIAWVMGVPSSEALQVGSIMATKLVSNEFVAMMDLQKIASTLSPRAEGIISVFLVSFANFSSIGIIAGAVKGLNEEQGNVVSRFGLKLVYGSTLVSVLSASIAALVL [P0AFF2] | 5.82 ± 0.35 h | 6.04 ± 0.57 h | 6.32 ± 0.029 h |  | 6.09 ± 0.15 h | 3.61 ± 0.038 h | 6.36 ± 0.65 h | 9.54 ± 3.4 h | 5.57 h | 13 ± 0.8 h | 7.07 ± 0.54 h | 6.45 ± 0.078 h
